Data published in patent US20250011363A1, “OPTIMIZED SHORTENED PEPTIDE THAT BINDS TO ACETYLCHOLINE RECEPTOR, AND USE THEREOF” (SKINMED CO., LTD., priority 2021, published 2025).

Target: acetylcholine receptor (Homo sapiens, UniProt P02708)
Experiment: SPR binding affinity (RU) of optimized 5mer/6mer/7mer peptides, Examples 6-7
Details: SPR, Resonance Units, peptides tested at 10 μM
How it was run: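 600 peptides per series (5mer, 6mer-1, 6mer-2), made from high- or low-frequency amino acid combinations, are screened by SPR at 10 μM; binding is recorded in RU.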

Chain of acetylcholine receptor (P02708 21-457): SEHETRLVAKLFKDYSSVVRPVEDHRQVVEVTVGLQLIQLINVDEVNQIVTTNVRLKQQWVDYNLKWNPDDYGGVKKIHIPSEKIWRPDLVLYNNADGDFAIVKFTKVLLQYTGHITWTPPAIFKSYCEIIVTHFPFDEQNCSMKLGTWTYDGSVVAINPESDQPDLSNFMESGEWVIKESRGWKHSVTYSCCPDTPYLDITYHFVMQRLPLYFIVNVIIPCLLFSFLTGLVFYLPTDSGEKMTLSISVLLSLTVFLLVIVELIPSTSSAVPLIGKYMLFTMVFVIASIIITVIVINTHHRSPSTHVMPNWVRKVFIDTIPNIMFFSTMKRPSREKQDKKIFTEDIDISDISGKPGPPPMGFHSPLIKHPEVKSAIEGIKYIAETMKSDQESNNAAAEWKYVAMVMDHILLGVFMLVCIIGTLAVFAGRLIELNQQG

6mer-2-376 (KQQCKR)
Binding affinity (6mer-2 Top sequence (Table 12)): 141 Ru

6mer-2-377 (RRYCRR)
Binding affinity (6mer-2 Top sequence (Table 12)): 142 Ru

6mer-2-378 (KRFQRK)
Binding affinity (6mer-2 Top sequence (Table 12)): 131 Ru

6mer-2-379 (RGVQKR)
Binding affinity (6mer-2 Top sequence (Table 12)): 127 Ru

6mer-2-380 (RLVYRK)
Binding affinity (6mer-2 Top sequence (Table 12)): 141 Ru

6mer-2-381 (KVYRRR)
Binding affinity (6mer-2 Top sequence (Table 12)): 139 Ru

6mer-2-382 (KSVSRR)
Binding affinity (6mer-2 Top sequence (Table 12)): 148 Ru

6mer-2-383 (KLVRRK)
Binding affinity (6mer-2 Top sequence (Table 12)): 128 Ru

6mer-2-384 (RSFQKK)
Binding affinity (6mer-2 Top sequence (Table 12)): 142 Ru

6mer-2-385 (RGVCKR)
Binding affinity (6mer-2 Top sequence (Table 12)): 154 Ru

6mer-2-386 (KWQSKR)
Binding affinity (6mer-2 Top sequence (Table 12)): 136 Ru

6mer-2-387 (KWLCKK)
Binding affinity (6mer-2 Top sequence (Table 12)): 146 Ru

6mer-2-388 (KRFQKK)
Binding affinity (6mer-2 Top sequence (Table 12)): 139 Ru

6mer-2-389 (KSLYKK)
Binding affinity (6mer-2 Top sequence (Table 12)): 153 Ru

6mer-2-390 (KWLRRR)
Binding affinity (6mer-2 Top sequence (Table 12)): 145 Ru

6mer-2-391 (KQYQKR)
Binding affinity (6mer-2 Top sequence (Table 12)): 141 Ru

6mer-2-392 (RQILKR)
Binding affinity (6mer-2 Top sequence (Table 12)): 149 Ru

6mer-2-393 (RGLQRK)
Binding affinity (6mer-2 Top sequence (Table 12)): 145 Ru

6mer-2-394 (KLVLKR)
Binding affinity (6mer-2 Top sequence (Table 12)): 141 Ru

6mer-2-395 (KWRYRR)
Binding affinity (6mer-2 Top sequence (Table 12)): 148 Ru

6mer-2-396 (KWLQRR)
Binding affinity (6mer-2 Top sequence (Table 12)): 122 Ru

6mer-2-397 (RSIYRK)
Binding affinity (6mer-2 Top sequence (Table 12)): 154 Ru

6mer-2-398 (RQQRRR)
Binding affinity (6mer-2 Top sequence (Table 12)): 141 Ru

6mer-2-399 (RWLTRR)
Binding affinity (6mer-2 Top sequence (Table 12)): 148 Ru

6mer-2-400 (RQIRRR)
Binding affinity (6mer-2 Top sequence (Table 12)): 154 Ru

6mer-2-401 (RSILRK)
Binding affinity (6mer-2 Top sequence (Table 12)): 153 Ru

6mer-2-402 (KRYSRR)
Binding affinity (6mer-2 Top sequence (Table 12)): 145 Ru

6mer-2-403 (KGVLRK)
Binding affinity (6mer-2 Top sequence): 123 Ru

6mer-2-404 (RVLSKR)
Binding affinity (6mer-2 Top sequence): 121 Ru

6mer-2-405 (KGYRKK)
Binding affinity (6mer-2 Top sequence): 137 Ru

6mer-2-406 (KGIYRR)
Binding affinity (6mer-2 Top sequence): 139 Ru

6mer-2-407 (KQVSKR)
Binding affinity (6mer-2 Top sequence): 122 Ru

6mer-2-408 (KQIYRR)
Binding affinity (6mer-2 Top sequence): 139 Ru

6mer-2-409 (KRRRKR)
Binding affinity (6mer-2 Top sequence): 139 Ru

6mer-2-410 (KRFRKK)
Binding affinity (6mer-2 Top sequence): 153 Ru

6mer-2-411 (RSRQKK)
Binding affinity (6mer-2 Top sequence): 121 Ru

6mer-2-412 (KRFLKK)
Binding affinity (6mer-2 Top sequence): 139 Ru

6mer-2-413 (RLILKR)
Binding affinity (6mer-2 Top sequence): 136 Ru

6mer-2-414 (KWRQKK)
Binding affinity (6mer-2 Top sequence): 135 Ru

6mer-2-415 (KGRCKK)
Binding affinity (6mer-2 Top sequence): 149 Ru

6mer-2-416 (RWRLRR)
Binding affinity (6mer-2 Top sequence): 131 Ru

6mer-2-417 (RWVYKK)
Binding affinity (6mer-2 Top sequence): 151 Ru

6mer-2-418 (RVQYKK)
Binding affinity (6mer-2 Top sequence): 121 Ru

6mer-2-419 (RSRYKK)
Binding affinity (6mer-2 Top sequence): 154 Ru

6mer-2-420 (RRQYRK)
Binding affinity (6mer-2 Top sequence): 128 Ru

6mer-2-421 (KVICRK)
Binding affinity (6mer-2 Top sequence): 124 Ru

6mer-2-422 (RLITRR)
Binding affinity (6mer-2 Top sequence): 154 Ru

6mer-2-423 (RLQYRK)
Binding affinity (6mer-2 Top sequence): 154 Ru

6mer-2-424 (RLYCKK)
Binding affinity (6mer-2 Top sequence): 139 Ru

6mer-2-425 (KLQTKK)
Binding affinity (6mer-2 Top sequence): 145 Ru

6mer-2-426 (KGQRRK)
Binding affinity (6mer-2 Top sequence): 141 Ru

6mer-2-427 (RLQRRR)
Binding affinity (6mer-2 Top sequence): 147 Ru

6mer-2-428 (KVFLKK)
Binding affinity (6mer-2 Top sequence): 142 Ru

6mer-2-429 (RWRQRK)
Binding affinity (6mer-2 Top sequence): 123 Ru

6mer-2-430 (RWFRRR)
Binding affinity (6mer-2 Top sequence): 139 Ru

6mer-2-431 (KLILKR)
Binding affinity (6mer-2 Top sequence): 135 Ru

6mer-2-432 (KVVRKR)
Binding affinity (6mer-2 Top sequence): 148 Ru

6mer-2-433 (RWIQKR)
Binding affinity (6mer-2 Top sequence): 139 Ru

6mer-2-434 (RVIRRK)
Binding affinity (6mer-2 Top sequence): 154 Ru

6mer-2-435 (RWVYKR)
Binding affinity (6mer-2 Top sequence): 154 Ru

6mer-2-436 (KVLYKR)
Binding affinity (6mer-2 Top sequence): 148 Ru

6mer-2-437 (KQVCKK)
Binding affinity (6mer-2 Top sequence): 121 Ru

6mer-2-438 (RLLCRK)
Binding affinity (6mer-2 Top sequence): 131 Ru

6mer-2-439 (KWFSKR)
Binding affinity (6mer-2 Top sequence): 153 Ru

6mer-2-440 (KQLSKK)
Binding affinity (6mer-2 Top sequence): 153 Ru

6mer-2-441 (KSQRKR)
Binding affinity (6mer-2 Top sequence): 139 Ru

6mer-2-442 (RLVQKR)
Binding affinity (6mer-2 Top sequence): 139 Ru

6mer-2-443 (RQYCRR)
Binding affinity (6mer-2 Top sequence): 122 Ru

6mer-2-444 (RQRLKK)
Binding affinity (6mer-2 Top sequence): 141 Ru

6mer-2-445 (RLVCKR)
Binding affinity (6mer-2 Top sequence): 145 Ru

6mer-2-446 (RQLQKK)
Binding affinity (6mer-2 Top sequence): 153 Ru

6mer-2-447 (RVYTKK)
Binding affinity (6mer-2 Top sequence): 139 Ru

6mer-2-448 (RSFRRR)
Binding affinity (6mer-2 Top sequence): 128 Ru

6mer-2-449 (RGRCRR)
Binding affinity (6mer-2 Top sequence): 154 Ru

6mer-2-450 (RQRYRK)
Binding affinity (6mer-2 Top sequence): 123 Ru

6mer-2-451 (RGRCKK)
Binding affinity (6mer-2 Top sequence): 148 Ru

6mer-2-452 (KGLYKR)
Binding affinity (6mer-2 Top sequence): 146 Ru

6mer-2-453 (RLVRKK)
Binding affinity (6mer-2 Top sequence): 141 Ru

6mer-2-454 (RSVQKK)
Binding affinity (6mer-2 Top sequence): 133 Ru

6mer-2-455 (RWYSKR)
Binding affinity (6mer-2 Top sequence): 135 Ru

6mer-2-456 (KSVTKR)
Binding affinity (6mer-2 Top sequence): 147 Ru

6mer-2-457 (RRVYKR)
Binding affinity (6mer-2 Top sequence): 146 Ru

6mer-2-458 (RRFQRR)
Binding affinity (6mer-2 Top sequence): 122 Ru

6mer-2-459 (KLFSRK)
Binding affinity (6mer-2 Top sequence): 139 Ru

6mer-2-460 (RSQCRK)
Binding affinity (6mer-2 Top sequence): 139 Ru

6mer-2-461 (KSVCRR)
Binding affinity (6mer-2 Top sequence): 149 Ru

6mer-2-462 (KQICKR)
Binding affinity (6mer-2 Top sequence): 145 Ru

6mer-2-463 (KLLTRR)
Binding affinity (6mer-2 Top sequence): 124 Ru

6mer-2-464 (KSFRKK)
Binding affinity (6mer-2 Top sequence): 135 Ru

6mer-2-465 (KGVSKR)
Binding affinity (6mer-2 Top sequence): 122 Ru

6mer-2-466 (RLLTRR)
Binding affinity (6mer-2 Top sequence): 142 Ru

6mer-2-467 (KQYSRR)
Binding affinity (6mer-2 Top sequence): 142 Ru

6mer-2-468 (RSFSKR)
Binding affinity (6mer-2 Top sequence): 133 Ru

6mer-2-469 (RLRTKK)
Binding affinity (6mer-2 Top sequence): 153 Ru

6mer-2-470 (RLRRRK)
Binding affinity (6mer-2 Top sequence): 153 Ru

6mer-2-471 (KWISRR)
Binding affinity (6mer-2 Top sequence): 136 Ru

6mer-2-472 (RSRLRR)
Binding affinity (6mer-2 Top sequence): 148 Ru

6mer-2-473 (RGRLRK)
Binding affinity (6mer-2 Top sequence): 131 Ru

6mer-2-474 (RWQQRR)
Binding affinity (6mer-2 Top sequence): 128 Ru

6mer-2-475 (KRFCRR)
Binding affinity (6mer-2 Top sequence): 139 Ru

6mer-2-476 (KGIRKK)
Binding affinity (6mer-2 Top sequence): 148 Ru

6mer-2-477 (RSRTRR)
Binding affinity (6mer-2 Top sequence): 135 Ru

6mer-2-478 (KWYTRK)
Binding affinity (6mer-2 Top sequence): 145 Ru

6mer-2-479 (KWRLKK)
Binding affinity (6mer-2 Top sequence): 154 Ru

6mer-2-480 (RRFTKK)
Binding affinity (6mer-2 Top sequence): 147 Ru

6mer-2-481 (RQRYKK)
Binding affinity (6mer-2 Top sequence): 131 Ru

6mer-2-482 (KGQTRR)
Binding affinity (6mer-2 Top sequence): 154 Ru

6mer-2-483 (RRYLKK)
Binding affinity (6mer-2 Top sequence): 121 Ru

6mer-2-484 (RWYTKR)
Binding affinity (6mer-2 Top sequence): 148 Ru

6mer-2-485 (RQIQKR)
Binding affinity (6mer-2 Top sequence): 148 Ru

6mer-2-486 (KQQSKK)
Binding affinity (6mer-2 Top sequence): 121 Ru

6mer-2-487 (KSYTKR)
Binding affinity (6mer-2 Top sequence): 121 Ru

6mer-2-488 (KVYRRK)
Binding affinity (6mer-2 Top sequence): 146 Ru

6mer-2-489 (RVISKK)
Binding affinity (6mer-2 Top sequence): 142 Ru

6mer-2-490 (RRYQKK)
Binding affinity (6mer-2 Top sequence): 145 Ru

6mer-2-491 (KRICKR)
Binding affinity (6mer-2 Top sequence): 135 Ru

6mer-2-492 (RLIQKK)
Binding affinity (6mer-2 Top sequence): 148 Ru

6mer-2-493 (KGVRRK)
Binding affinity (6mer-2 Top sequence): 123 Ru

6mer-2-494 (KGLLRR)
Binding affinity (6mer-2 Top sequence): 144 Ru

6mer-2-495 (KLLCKK)
Binding affinity (6mer-2 Top sequence): 121 Ru

6mer-2-496 (RVRYRK)
Binding affinity (6mer-2 Top sequence): 144 Ru

6mer-2-497 (KSYTRR)
Binding affinity (6mer-2 Top sequence): 148 Ru

6mer-2-498 (KGLCRR)
Binding affinity (6mer-2 Top sequence): 127 Ru

6mer-2-499 (RLFTKR)
Binding affinity (6mer-2 Top sequence): 145 Ru

6mer-2-500 (KRICRR)
Binding affinity (6mer-2 Top sequence): 146 Ru

6mer-2-501 (KSYSKK)
Binding affinity (6mer-2 Top sequence): 144 Ru

6mer-2-502 (KSFCKR)
Binding affinity (6mer-2 Top sequence): 144 Ru

6mer-2-503 (KVQTKK)
Binding affinity (6mer-2 Top sequence): 154 Ru

6mer-2-504 (RGLTRK)
Binding affinity (6mer-2 Top sequence): 154 Ru

6mer-2-505 (KRQCKK)
Binding affinity (6mer-2 Top sequence): 148 Ru

6mer-2-506 (KSLLKK)
Binding affinity (6mer-2 Top sequence): 135 Ru
